Assay results from patent publication US20210261937.

How the values were obtained:
[1] = target: bdSUMO Mut12-MBP fusion protein
[2] = target: bdSUMO Mut8-MBP fusion protein
[3] = target: hsSUMO2-MBP fusion protein with the bdSUMO^Mut1 exchanges
[4] = target: bdSUMO-MBP fusion protein
[5] = target: scSUMO-MBP fusion protein with the bdSUMO^Mut11 exchanges
[6] = target: hsSUMO2-MBP fusion protein with the bdSUMO^Mut11 exchanges
[7] = target: bdSUMO^Mut1-MBP fusion protein
[8] = target: scSUMO-MBP fusion protein
[9] = target: bdSUMO Mut14-MBP fusion protein
[10] = target: bdSUMO Mut10-MBP fusion protein
[11] = target: bdSUMO Mut11-MBP fusion protein
[12] = target: scSUMO-MBP fusion protein with the bdSUMO^Mut1 exchanges
[13] = target: bdSUMO D67K-MBP fusion protein
[14] = target: bdSUMO Mut13-MBP fusion protein
[15] = target: hsSUMO2-MBP fusion protein
[16] = target: bdSUMO Mut15-MBP fusion protein

| Protein | cleavage of the SUMO fusion protein [1] | cleavage of the SUMO fusion protein [2] | cleavage of the SUMO fusion protein [4] [% cleavage] | cleavage of 100 µM fusion, 1 h at 0 °C (FIG. 7) (SUMOstar-MBP fusion) | cleavage of the SUMO fusion protein [7] | cleavage of the SUMO fusion protein [8] | cleavage of the SUMO fusion protein [9] | cleavage of the SUMO fusion protein [10] | cleavage of the SUMO fusion protein [11] | cleavage of the SUMO fusion protein [13] | cleavage of the SUMO fusion protein [14] | cleavage of the SUMO fusion protein [15] | cleavage of the SUMO fusion protein [16] | also measured |
| --- | --- | --- | --- | --- | --- | --- | --- | --- | --- | --- | --- | --- | --- | --- |
| SUMOstar protease (protein) LVPELNEKDDDQVQKALASRENTQLMNRDNIEITVRDFKTLAPRRWLNSGIISFFMKYIEKSTPNTVAFNSFFYTNLSERGYQGVRRWMKRKKTQIDKLDKIFTPINLNQSHWALGIIDLKKKTIGYVDSLSNGPNAMSFAILTDLQKYVMEESKHTIGEDFDLIHLDCPQQPNGYDCGIYVCMNTLYGSADAPLDFDYKDAIRMRRFIAHLILTDALK | resistant | resistant | 100 | SUMOstar protease only recognized SUMOstar-MBP | resistant | 100 % cleavage | resistant | resistant | resistant | resistant | resistant | < 25 % cleavage | resistant | cleavage of SUMO-MBP fusion, 1 h at 25 °C (FIG. 14) [3]: allowed cleavage resistance against Ulp1, SUMOstar protease, hsSENP2 and bdSENP1; cleavage of SUMO-MBP fusion, 1 h at 25 °C (FIG. 14) [5]: allowed cleavage resistance against Ulp1, SUMOstar protease, hsSENP2 and bdSENP1; cleavage of SUMO-MBP fusion, 1 h at 25 °C (FIG. 14) [6]: allowed cleavage resistance against Ulp1, SUMOstar protease, hsSENP2 and bdSENP1; cleavage of 100 µM fusion, 1 h at 0 °C (FIG. 7) [7]: left intact the bdSUMO^Mut1-MBP fusion protein even at the highest SUMOstar protease concentration of 10 µM; cleavage of SUMO-MBP fusion, 1 h at 25 °C (FIG. 14) [12]: allowed cleavage resistance against Ulp1, SUMOstar protease, hsSENP2 and bdSENP1; cleavage of bdSUMO-MBP variants by 10 µM SUMOstar protease, 2 h at 25 °C (FIG. 5) [13]: the D67K mutation alone was necessary and sufficient for blocking cleavage |
| bdSENP1^MutB protease (protein) PFVPLTDEDEDNVRHALGGRKRSETLSVHEASSIVITREILQCLNDKEWLNDEVINLYLELLKERELREPNKFLKCHFFNTFFYKKLINGGYDYKSVREWTTKRKLGYNLIDCDKIFVPIHKDVHWCLAVINIKEKKFQYLDSLGYMDMKALRILAKYLVDEVKDKSGKQIDVHAWKQEGVQNLPLQENGWDCGMFMLKYIDFYSRDMELVFGQKHMSYFRRRTAKEILDLKAG | 100 % cleavage | < 50 % cleavage | < 25 | the SUMOstar-MBP fusion remained intact even at the highest protease concentration of 10 µM | 100 % cleavage | resistant | 100 % cleavage | 100 % cleavage | 100 % cleavage | < 75 % cleavage | 100 % cleavage | resistant | 100 % cleavage | molar excess of substrate cleaved within one hour at 0 °C [7]: able to cleave a 500-fold molar excess of substrate within one hour at 0 °C; protease concentration that cleaves the cognate substrate, 1 h at 0 °C (FIG. 7) [7]: bdSENP1^MutB protease only cleaved its cognate substrate at a concentration of 200 nM; protease concentration that cleaves ≈95% of 100 µM substrate, 1 h at 0 °C [7]: only 200 nM of bdSENP1^MutB protease were enough to cleave ≈95% of the cognate substrate (bdSUMOmut 1); proteolytic efficiency against TEV protease [7]: around 1000-fold more efficient than the site-specific protease from the tobacco etch virus (TEV protease); proteolytic efficiency against bdSENP1 or Ulp1 on their cognate substrates [7]: only 5-fold less efficient as compared bdSENP1 or Ulp1; cleavage of SUMO-MBP fusion (FIG. 14) [8]: wild type scSUMO and human SUMO-2 (hsSUMO2) fusion proteins remain intact even in the presence of extremely high concentration of bdSENP1^MutB; cleavage of SUMO-MBP fusion (FIG. 14) [15]: wild type scSUMO and human SUMO-2 (hsSUMO2) fusion proteins remain intact even in the presence of extremely high concentration of bdSENP1^MutB |
